Target: receptor CCR1 (UniProt P32246)
Assay: cell-based or functional assay

Chain of UniProt P32246 (P32246 whole entry): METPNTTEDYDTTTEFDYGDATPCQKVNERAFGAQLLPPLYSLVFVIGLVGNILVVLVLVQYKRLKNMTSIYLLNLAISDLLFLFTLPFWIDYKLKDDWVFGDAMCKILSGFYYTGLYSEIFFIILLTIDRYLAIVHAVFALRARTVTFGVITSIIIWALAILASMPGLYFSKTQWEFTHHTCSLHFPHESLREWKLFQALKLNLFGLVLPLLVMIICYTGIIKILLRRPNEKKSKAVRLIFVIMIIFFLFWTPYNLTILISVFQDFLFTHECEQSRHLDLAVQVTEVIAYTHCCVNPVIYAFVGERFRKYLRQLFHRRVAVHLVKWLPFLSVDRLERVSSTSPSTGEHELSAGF

reactivity of the CCR1 receptor (Tango CCR1-bla U20S reporter cells, Blue/Green Emission ratio): 0.63 nM
Substance: CCL3 (D27A, Δ1, CCL3α) (from UniProt P10147 24-92) (ligand)

— patent US20190153055A1
